In assay [1] the target is T1, Construct 7 (NaPi2b del 317-326) (human, UniProt O95436 1-690).
T1 construct: Deletion construct on HEK293-6e cells; also called CL_#29921
T1 sequence: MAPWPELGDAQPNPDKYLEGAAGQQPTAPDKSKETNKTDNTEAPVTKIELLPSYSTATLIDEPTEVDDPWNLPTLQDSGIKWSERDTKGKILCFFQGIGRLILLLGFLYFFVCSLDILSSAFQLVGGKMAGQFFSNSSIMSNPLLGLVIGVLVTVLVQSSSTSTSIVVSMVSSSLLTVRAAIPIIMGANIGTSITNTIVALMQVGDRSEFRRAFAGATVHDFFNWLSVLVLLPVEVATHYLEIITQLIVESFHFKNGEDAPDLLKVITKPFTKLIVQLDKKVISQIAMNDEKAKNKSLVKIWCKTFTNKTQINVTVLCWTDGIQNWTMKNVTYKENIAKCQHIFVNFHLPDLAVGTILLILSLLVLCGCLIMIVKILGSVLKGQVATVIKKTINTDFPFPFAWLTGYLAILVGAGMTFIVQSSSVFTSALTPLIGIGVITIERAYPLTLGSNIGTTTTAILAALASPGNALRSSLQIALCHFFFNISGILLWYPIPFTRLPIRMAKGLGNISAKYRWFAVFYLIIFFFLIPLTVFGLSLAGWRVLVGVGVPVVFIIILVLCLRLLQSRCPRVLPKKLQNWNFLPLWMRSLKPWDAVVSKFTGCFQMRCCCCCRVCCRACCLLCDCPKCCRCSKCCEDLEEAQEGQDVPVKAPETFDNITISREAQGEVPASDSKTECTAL
Nature of the assay: flow cytometry, HEK293-6e cells transfected with Construct 7. Background: In flow cytometry, cells or beads pass a laser one at a time.
Procedure: (§1) Following transfection, cells were seeded at 50,000 cells/well in conical-bottom 96-well plates and treated with a serial dilution of test antibody for 24 hours at 4° C. to prevent internalization. Cells were treated with final concentrations of all humanized antibodies of 200, 20, or 2 nM. Cells were treated with final concentrations of the reference anti-NaPi2a rabbit antibody of 50, 5, or 0.5 nM. […] Following incubation and washing, fluorescence was detected by flow cytometry on a BD LSRFortessa™ Cell Analyzer (BD Biosciences, Franklin Lake, NJ) with 1,000 minimum events collected per well. […] Background-subtracted AF647 Mean Fluorescence Intensity (MFI) values were calculated by subtracting the average MFI of three technical replicates of unstained (no primary antibody) cells.

Assay [2] concerns the target T2, Construct 6 (NaPi2b del 317-333) (human, UniProt O95436 1-690).
T2 construct: Deletion construct on HEK293-6e cells; also called CL_#29919
T2 sequence: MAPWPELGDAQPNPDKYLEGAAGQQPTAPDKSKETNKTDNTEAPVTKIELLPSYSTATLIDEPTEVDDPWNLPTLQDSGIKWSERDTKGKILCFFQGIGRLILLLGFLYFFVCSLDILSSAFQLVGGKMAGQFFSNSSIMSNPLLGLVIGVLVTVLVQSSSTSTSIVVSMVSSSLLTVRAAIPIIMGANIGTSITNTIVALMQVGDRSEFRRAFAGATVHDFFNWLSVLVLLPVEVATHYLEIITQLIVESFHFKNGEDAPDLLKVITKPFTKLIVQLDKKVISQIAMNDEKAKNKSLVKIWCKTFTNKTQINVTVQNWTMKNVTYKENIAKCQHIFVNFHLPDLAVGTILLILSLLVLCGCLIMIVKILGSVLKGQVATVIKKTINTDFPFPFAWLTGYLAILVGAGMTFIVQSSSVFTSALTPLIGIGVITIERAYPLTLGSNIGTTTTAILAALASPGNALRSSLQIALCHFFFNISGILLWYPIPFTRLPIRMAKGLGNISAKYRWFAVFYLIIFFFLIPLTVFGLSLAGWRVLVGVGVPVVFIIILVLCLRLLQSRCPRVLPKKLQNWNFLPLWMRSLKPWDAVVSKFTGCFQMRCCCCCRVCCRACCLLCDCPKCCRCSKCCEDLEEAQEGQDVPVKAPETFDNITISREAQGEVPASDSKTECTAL
Nature of the assay: flow cytometry, HEK293-6e cells transfected with Construct 6.
Procedure: as §1

Assay [3] deals with T3, mouse NaPi2b (mouse, UniProt Q9DBP0 1-697).
T3 construct: also called Ms NaPi2b; CL #13476
T3 sequence: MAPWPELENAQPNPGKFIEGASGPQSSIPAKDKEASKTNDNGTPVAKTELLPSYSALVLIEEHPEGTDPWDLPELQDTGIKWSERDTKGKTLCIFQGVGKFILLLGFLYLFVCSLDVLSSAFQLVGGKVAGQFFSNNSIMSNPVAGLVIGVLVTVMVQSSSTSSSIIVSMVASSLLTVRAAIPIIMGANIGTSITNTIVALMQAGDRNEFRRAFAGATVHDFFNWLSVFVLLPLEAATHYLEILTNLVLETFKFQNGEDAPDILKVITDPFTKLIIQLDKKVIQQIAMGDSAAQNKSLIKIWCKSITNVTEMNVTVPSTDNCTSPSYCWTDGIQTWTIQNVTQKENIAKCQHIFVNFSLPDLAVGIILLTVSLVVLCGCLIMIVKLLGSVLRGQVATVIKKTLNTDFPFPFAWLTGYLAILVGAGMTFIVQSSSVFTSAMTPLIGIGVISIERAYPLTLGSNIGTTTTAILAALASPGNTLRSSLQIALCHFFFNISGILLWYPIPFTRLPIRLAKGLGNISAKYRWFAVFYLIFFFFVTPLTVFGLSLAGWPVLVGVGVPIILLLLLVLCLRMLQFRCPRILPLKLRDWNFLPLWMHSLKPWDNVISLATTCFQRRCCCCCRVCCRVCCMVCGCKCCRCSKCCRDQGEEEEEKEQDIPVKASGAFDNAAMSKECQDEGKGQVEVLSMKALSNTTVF
Nature of the assay: flow cytometry, HEK293-6e cells transfected with mouse NaPi2b; apparent Kd above the highest concentration tested.

Assay [4] deals with T4, cynomolgus monkey NaPi2b (cynomolgus monkey, UniProt O95436 1-690 (human entry)).
T4 construct: also called Cyno NaPi2b; Cy NaPi2b
T4 chain: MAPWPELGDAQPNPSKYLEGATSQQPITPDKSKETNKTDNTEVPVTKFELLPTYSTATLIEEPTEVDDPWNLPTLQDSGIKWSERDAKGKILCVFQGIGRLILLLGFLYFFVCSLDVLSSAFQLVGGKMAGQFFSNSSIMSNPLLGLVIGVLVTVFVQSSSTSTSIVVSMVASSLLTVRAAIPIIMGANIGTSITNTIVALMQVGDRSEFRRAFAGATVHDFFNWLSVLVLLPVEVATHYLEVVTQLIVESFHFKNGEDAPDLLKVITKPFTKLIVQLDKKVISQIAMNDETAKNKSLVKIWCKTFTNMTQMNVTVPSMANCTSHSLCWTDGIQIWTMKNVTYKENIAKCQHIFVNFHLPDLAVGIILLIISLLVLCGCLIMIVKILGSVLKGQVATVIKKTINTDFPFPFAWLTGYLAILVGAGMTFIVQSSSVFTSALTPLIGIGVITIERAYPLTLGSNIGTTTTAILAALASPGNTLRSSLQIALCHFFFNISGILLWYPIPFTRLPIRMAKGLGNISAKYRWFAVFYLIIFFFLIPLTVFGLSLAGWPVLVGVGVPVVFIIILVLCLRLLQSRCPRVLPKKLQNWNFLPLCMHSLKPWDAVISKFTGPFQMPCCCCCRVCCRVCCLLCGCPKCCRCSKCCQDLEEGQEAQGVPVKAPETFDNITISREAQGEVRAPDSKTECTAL
Nature of the assay: flow cytometry on HEK293-6e cells transiently transfected with cynomolgus NaPi2b, antibody 18-24 h at 4 C, anti-human IgG Fc AF647.

B1: v18993 (lifastuzumab), reference anti-NaPi2b antibody (antibody, human IgG1, kappa)
heavy 1: GEVQLVESGGGLVQPGGSLRLSCAASGFSFSDFAMSWVRQAPGKGLEWVATIGRVAFHTYYPDSMKGRFTISRDNSKNTLYLQMNSLRAEDTAVYYCARHRGFDVGHFDFWGQGTLVTVSSASTKGPSVFPLAPSSKSTSGGTAALGCLVKDYFPEPVTVSWNSGALTSGVHTFPAVLQSSGLYSLSSVVTVPSSSLGTQTYICNVNHKPSNTKVDKKVEPKSCDKTHTCPPCPAPELLGGPSVFLFPPKPKDTLMISRTPEVTCVVVDVSHEDPEVKFNWYVDGVEVHNAKTKPREEQYNSTYRVVSVLTVLHQDWLNGKEYKCKVSNKALPAPIEKTISKAKGQPREPQVYVYPPSRDELTKNQVSLTCLVKGFYPSDIAVEWESNGQPENNYKTTPPVLDSDGSFALVSKLTVDKSRWQQGNVFSCSVMHEALHNHYTQKSLSLSPG
heavy 2: not shown
light: GDIQMTQSPSSLSASVGDRVTITCRSSETLVHSSGNTYLEWYQQKPGKAPKLLIYRVSNRFSGVPSRFSGSGSGTDFTLTISSLQPEDFATYYCFQGSFNPLTFGQGTKVEIKRTVAAPSVFIFPPSDEQLKSGTASVVCLLNNFYPREAKVQWKVDNALQSGNSQESVTEQDSKDSTYSLSSTLTLSKADYEKHKVYACEVTHQGLSSPVTKSFNRGEC
Consider B1, for which the binding result in assay [1] is on record as “no binding (tested: 200 nM)”.

B2: v18992 (MX35), reference anti-NaPi2b antibody (antibody, human IgG1, kappa)
heavy 1: GQVQLVQSGAEVVKPGASVKMSCKASGYTFTGYNIHWVKQAPGQGLEWIGAIYPGNGDTSYKQKFRGRATLTADTSTSTVYMELSSLRSEDSAVYYCARGETARATFAYWGQGTLVTVSSASTKGPSVFPLAPSSKSTSGGTAALGCLVKDYFPEPVTVSWNSGALTSGVHTFPAVLQSSGLYSLSSVVTVPSSSLGTQTYICNVNHKPSNTKVDKKVEPKSCDKTHTCPPCPAPELLGGPSVFLFPPKPKDTLMISRTPEVTCVVVDVSHEDPEVKFNWYVDGVEVHNAKTKPREEQYNSTYRVVSVLTVLHQDWLNGKEYKCKVSNKALPAPIEKTISKAKGQPREPQVYVYPPSRDELTKNQVSLTCLVKGFYPSDIAVEWESNGQPENNYKTTPPVLDSDGSFALVSKLTVDKSRWQQGNVFSCSVMHEALHNHYTQKSLSLSPG
heavy 2: not shown
light: GDIQMTQSPSSLSASVGDRVTITCSASQDIGNFLNWYQQKPGKTVKVLIYYTSSLYSGVPSRFSGSGSGTDYTLTISSLQPEDFATYYCQQYSKLPLTFGQGTKLELKRTVAAPSVFIFPPSDEQLKSGTASVVCLLNNFYPREAKVQWKVDNALQSGNSQESVTEQDSKDSTYSLSSTLTLSKADYEKHKVYACEVTHQGLSSPVTKSFNRGEC
For the molecule B2, the binding result in assay [2] was “no binding (tested: 200 nM)”. For the same molecule, in assay [3], the Kd was > 200 nM.

B3: v22277 (palivizumab, anti-RSV negative control, heterodimeric Fc) (antibody, human IgG1, kappa)
heavy 1: GQVTLRESGPALVKPTQTLTLTCTFSGFSLSTSGMSVGWIRQPPGKALEWLADIWWDDKKDYNPSLKSRLTISKDTSKNQVVLKVTNMDPADTATYYCARSMITNWYFDVWGAGTTVTVSSASTKGPSVFPLAPSSKSTSGGTAALGCLVKDYFPEPVTVSWNSGALTSGVHTFPAVLQSSGLYSLSSVVTVPSSSLGTQTYICNVNHKPSNTKVDKKVEPKSCDKTHTCPPCPAPELLGGPSVFLFPPKPKDTLMISRTPEVTCVVVDVSHEDPEVKFNWYVDGVEVHNAKTKPREEQYNSTYRVVSVLTVLHQDWLNGKEYKCKVSNKALPAPIEKTISKAKGQPREPQVYVYPPSRDELTKNQVSLTCLVKGFYPSDIAVEWESNGQPENNYKTTPPVLDSDGSFALVSKLTVDKSRWQQGNVFSCSVMHEALHNHYTQKSLSLSPG
heavy 2: not shown
light: GDIQMTQSPSTLSASVGDRVTITCKSQLSVGYMHWYQQKPGKAPKLLIYDTSKLASGVPSRFSGSGSGTEFTLTISSLQPDDFATYYCFQGSGYPFTFGGGTKLEIKRTVAAPSVFIFPPSDEQLKSGTASVVCLLNNFYPREAKVQWKVDNALQSGNSQESVTEQDSKDSTYSLSSTLTLSKADYEKHKVYACEVTHQGLSSPVTKSFNRGEC
notes: also called neg control
As to B3, the binding result in assay [4] is “no binding (tested: 200 nM)”.
